Source: PMC7357788, “Overlapping functions and protein-protein interactions of LRR-extensins in Arabidopsis” (PLoS Genetics, 2020)
“Also recorded” adds a separate entry of the source. Ends that are not written are not given here.

What was measured:
[1] = system: LRX1^ΔE; assay: Co-IP of LRX1^ΔE-HA with RALF1-FLAG; type: binding, Arabidopsis thaliana; conditions: Co-IP and immunoblotting, transient expression in N. benthamiana
Method: Here, we tested binding of RALF1 to LRX1.
For pulldown and Co-IP analysis of the different constructs indicated in the experiments DNA was infiltrated into Nicotiana benthamiana leaves, and after 48 hrs, the leaves were excised and ground in liquid nitrogen as described in [62]. Two hundred mg of tissue powder was re-suspended in 500 μL extraction buffer [200 mM Tris-HCl (pH 7.5), 150 mM NaCl, 1 mM PMSF, protease inhibitor and 0.5% Triton X-100]. The suspension was incubated on ice for 30 minutes and then centrifuged at 11,000 rpm for 20 minutes at 4°C. The supernatant (200 μL) was then incubated with 10 μL anti-HA (Thermo Scientific, 88837), or anti-FLAG magnetic beads overnight at 4°C on a rotating shaker. If RALF1 peptide was added, the peptide was diluted in such way that for every sample 1μL of peptide was added to the protein extracts. After incubation, the beads were washed five times with the wash buffer (extraction buffer containing 0.05% Triton X-100) and boiled in SDS-PAGE loading buffer for 15 minutes at 75°C. The immunoprecipitates were then run on an SDS-PAGE gel and transferred to nitrocellulose membrane to perform immunoblotting using the following antibodies: anti-FLAG M2 (Sigma-Aldrich, F3165), anti-GFP (Biolegend, 902601), anti-HA-HRP 3F10 (Roche, 12 013 819 001) and anti-mouse-HRP (Sigma Aldrich, A 4416). […]

[2] = system: FLS2-BAK1; conditions: ref [17]; cited from earlier work
Text: Different LRXs bind an overlapping but not identical array of RALF peptides, and the full binding spectrum of the different LRXs might be even broader. One reason for the distinct RALF binding spectrum of LRXs is based on their expression pattern. […] It can be speculated that the diverse affinities of RALFs and LRXs contribute to the specificities of the plant’s response to different RALF peptides that have distinct biological activities [[17],[18],[19],[20],[26 ...

[3] = system: LRX3, LRX4, and LRX5; conditions: vegetative tissues; ref [40],[41]; cited from earlier work
Text: LRX proteins were recently identified as high-affinity binding sites for RALF peptides, with the binding spectrum differing among the LRXs. […] Whether and how the binding of RALFs and FER to LRXs influences the interaction of these proteins remains to be investigated. It is also unknown to what extent the different LRXs are functionally similar and whether they share FER as a common interaction ...

[4] = system: FER^ECD; assay: Yeast-two-hybrid LRX LRR domain-FER^ECD; type: binding, Arabidopsis thaliana; conditions: Y2H, yeast strain PJ69-4A, LRR domains, -Trp, Leu, His, Ade drop-out medium containing 5 mM 3-AT
Text: The BD-LRX4 and AD-FER^ECD constructs for the Yeast-two-hybrid experiment were cloned as previously described, where NtermFER equals AD-FER^ECD and LRR4 equals BD-LRX4. For the BD-LRX1/2/3/5 constructs, the coding sequence of the LRR domain of the LRXs was amplified using primers (S3 Table) to introduce a BamHI and a XhoI site at the 5’ and 3’ end of the PCR fragments, respectively. These were cloned into pJET1.2 (Thermo Scientific) and correct clones were cut with BamHI and XhoI and ligated into pGBKT7 cut with BamHI and SalI. The AD-RALF1 construct was cloned into pJET1.2 (Thermo Scientific) by amplification of the coding sequence with the primers y2h_RALF1_F and y2h_RALF1_R. A correct clone was cut with EcoRI and XmaI and ligated into pGADT7 cut with EcoRI and XmaI.
Transformation of the yeast strain PJ69-4A [63] was done following standard procedures and quadruple drop-out medium lacking Leu, Trp, His, and Ade were used to screen for positive interactions after 4 days incubation at 30°C. Three different colonies containing both vectors were mixed and plated in triplicates on quadruple drop-out medium.
Supplementary file pgen.1008847.s001.pdf: S1 Fig Interaction of LRXs and FER in yeast-two-hybrid assays. […]

[5] = system: FER^ECD; assay: Co-IP of LRX^ΔE with FER^ECD-Citrine; type: binding, Arabidopsis thaliana; conditions: proteins expressed in N. benthamiana
Text: The root hair-localized LRX1 is so far the best characterized LRX protein and the lrx1 root hair mutant represents a convenient genetic system for analyses of LRX protein function. […] To this end, constructs encoding LRX1^ΔE-FLAG and the extracellular domain of FER fused to citrine (FER^ECD-Citrine) under the 35S promoter were expressed in tobacco for Co-IP experiments. […] The Y2H experiments were extended to other LRXs of vegetative tissues, namely the LRR domains of LRX2, LRX3, LRX4, and LRX5.
For pulldown and Co-IP analysis of the different constructs indicated in the experiments DNA was infiltrated into Nicotiana benthamiana leaves, and after 48 hrs, the leaves were excised and ground in liquid nitrogen as described in [62]. Two hundred mg of tissue powder was re-suspended in 500 μL extraction buffer [200 mM Tris-HCl (pH 7.5), 150 mM NaCl, 1 mM PMSF, protease inhibitor and 0.5% Triton X-100]. The suspension was incubated on ice for 30 minutes and then centrifuged at 11,000 rpm for 20 minutes at 4°C. The supernatant (200 μL) was then incubated with 10 μL anti-HA (Thermo Scientific, 88837), or anti-FLAG magnetic beads overnight at 4°C on a rotating shaker. If RALF1 peptide was added, the peptide was diluted in such way that for every sample 1μL of peptide was added to the protein extracts. […]

[6] = target: LRX4^ΔE-FLAG (Arabidopsis thaliana) (UniProt Q9LHF1); assay: BLI; BLITZ; LRX^ΔE-FLAG mixed with anti-FLAG M2 antibody and loaded onto a protein A biosensor; synthetic RALF1 peptide added at 0.2-200 μM; association 120 s, dissociation 120 s; sample diluent buffer (Pall FortéBio)
[7] = target: LRX3^ΔE-FLAG (Arabidopsis thaliana) (UniProt Q9T0K5); assay: as above
[8] = target: LRX1^ΔE-FLAG (Arabidopsis thaliana); assay: as above
[9] = target: LRX5^ΔE-FLAG (Arabidopsis thaliana) (UniProt Q9SN46); assay: as above
LRX5^ΔE-FLAG (Arabidopsis thaliana), sequence (Q9SN46 32-857, stated change not applied): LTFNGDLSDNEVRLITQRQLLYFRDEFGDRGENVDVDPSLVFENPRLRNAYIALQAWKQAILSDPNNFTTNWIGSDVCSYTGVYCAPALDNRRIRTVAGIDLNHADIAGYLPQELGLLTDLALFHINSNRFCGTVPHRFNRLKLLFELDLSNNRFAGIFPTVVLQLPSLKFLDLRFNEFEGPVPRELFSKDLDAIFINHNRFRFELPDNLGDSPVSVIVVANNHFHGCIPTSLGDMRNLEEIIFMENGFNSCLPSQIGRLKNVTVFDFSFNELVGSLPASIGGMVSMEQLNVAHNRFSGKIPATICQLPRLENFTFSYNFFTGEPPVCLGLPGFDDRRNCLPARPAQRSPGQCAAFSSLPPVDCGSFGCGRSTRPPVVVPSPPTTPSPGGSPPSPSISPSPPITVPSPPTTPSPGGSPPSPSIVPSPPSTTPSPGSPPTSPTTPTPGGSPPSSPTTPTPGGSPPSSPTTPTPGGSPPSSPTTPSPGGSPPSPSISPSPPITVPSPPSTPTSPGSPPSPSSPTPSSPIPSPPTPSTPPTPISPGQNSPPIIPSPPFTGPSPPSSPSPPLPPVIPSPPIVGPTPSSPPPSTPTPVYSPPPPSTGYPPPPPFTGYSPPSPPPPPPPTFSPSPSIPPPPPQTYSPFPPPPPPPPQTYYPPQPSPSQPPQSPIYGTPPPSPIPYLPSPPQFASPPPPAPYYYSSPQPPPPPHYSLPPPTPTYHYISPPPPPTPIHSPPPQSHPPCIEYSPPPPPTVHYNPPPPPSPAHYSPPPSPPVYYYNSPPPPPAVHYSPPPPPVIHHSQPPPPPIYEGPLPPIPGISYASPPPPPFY

LRX4^ΔE-FLAG (Arabidopsis thaliana), sequence (Q9LHF1 26-494, stated change not applied): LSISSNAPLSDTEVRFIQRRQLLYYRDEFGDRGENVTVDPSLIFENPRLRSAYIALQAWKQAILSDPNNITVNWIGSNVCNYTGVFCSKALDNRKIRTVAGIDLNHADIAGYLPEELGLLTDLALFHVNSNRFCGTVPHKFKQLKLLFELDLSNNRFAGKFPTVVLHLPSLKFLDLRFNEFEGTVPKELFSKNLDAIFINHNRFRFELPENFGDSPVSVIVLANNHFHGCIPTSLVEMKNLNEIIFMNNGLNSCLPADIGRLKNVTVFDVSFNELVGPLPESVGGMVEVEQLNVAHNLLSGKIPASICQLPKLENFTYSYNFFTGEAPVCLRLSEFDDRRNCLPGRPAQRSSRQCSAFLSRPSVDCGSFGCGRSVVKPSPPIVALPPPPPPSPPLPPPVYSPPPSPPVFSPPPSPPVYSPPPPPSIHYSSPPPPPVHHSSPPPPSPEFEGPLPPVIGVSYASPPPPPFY

For “RALF1-FLAG: FLAG-tagged RALF1 transiently expressed in N. benthamiana (ATTKYISYQSLKRNSVPCSRRGASYYNCQNGAQANPYSRGCSKIARCRS; ends and bridges not checked; also: FLAG tag, site not given here; UniProt Q9SRY3 72-120, looked up)”, the “interaction with LRX1^ΔE” value [1] was “showed interaction of the two proteins”.

For “RALF23: RALF peptide reported to be bound by LRX3, LRX4, and LRX5 (ATRRYISYGALRRNTIPCSRRGASYYNCRRGAQANPYSRGCSAITRCRRS; UniProt Q9LUS7 89-138, looked up)”, the “effect on scaffolding function of FER” value [2] is listed as “inducing the dissociation of FLS2 from BAK1” and the “binding to LRX3, LRX4, and LRX5” value [3] is listed as “reported to bind”.

B1: LRX1: LRR domain of LRX1 (BD-LRX1), gene At1g12040 (protein)
chain: MLFPPLRSLFLFTLLLSSVCFLQIKADHDDESDLGSDIKVDKRLKFENPKLRQAYIALQSWKKAIFSDPFNFTANWNGSDVCSYNGIYCAPSPSYPKTRVVAGIDLNHADMAGYLASELGLLSDLALFHINSNRFCGEVPLTFNRMKLLYELDLSNNRFVGKFPKVVLSLPSLKFLDLRYNEFEGKIPSKLFDRELDAIFLNHNRFRFGIPKNMGNSPVSALVLADNNLGGCIPGSIGQMGKTLNELILSNDNLTGCLPPQIGNLKKVTVFDITSNRLQGPLPSSVGNMKSLEELHVANNAFTGVIPPSICQLSNLENFTYSSNYFSGRPPICAASLLADIVVNGTMNCITGLARQRSDKQCSSLLARPVDCSKFGCYNIFSPPPPTFKMSPEVRTLPPPIYVYSSPPPPPSSKMSPTVRAYSPPPPPSSKMSPSVRAYSPPPPPYSKMSPSVRAYPPPPPPSPSPPPPYVYSSPPPPYVYSSPPPPPYVYSSPPPPPYVYSSPPPPYVYSSPPPPYVYSSPPPPPPSPPPPCPESSPPPPVVYYAPVTQSPPPPSPVYYPPVTQSPPPPSPVYYPPVTNSPPPPSPVYYPPVTYSPPPPSPVYYPQVTPSPPPPSPLYYPPVTPSPPPPSPVYYPPVTPSPPPPSPVYYPPVTPSPPPPSPVYYPSETQSPPPPTEYYYSPSQSPPPTKACKEGHPPQATPSYEPPPEYSYSSSPPPPSPTSYFPPMPSVSYDASPPPPPSYY
modifications: left off: Gal4 DNA-binding domain (from the vector pGBKT7), end not stated, kept
notes: LRR domain of LRX1 (BD-LRX1), gene At1g12040
For B1, the “interaction with FER^ECD” value [4] was “confirmed in a yeast-two-hybrid (Y2H) experiment” and the “interaction with FER^ECD” value ([5]; listed as LRX1^ΔE) was “show interaction with FER^ECD”.

B2: LRX3^ΔE: LRX3 lacking the extensin domain (protein)
chain: LSISSDGGVLSDNEVRHIQRRQLLEFAERSVKITVDPSLNFENPRLRNAYIALQAWKQAILSDPNNFTSNWIGSNVCNYTGVFCSPALDNRKIRTVAGIDLNHADIAGYLPEELGLLSDLALFHVNSNRFCGTVPHRFNRLKLLFELDLSNNRFAGKFPTVVLQLPSLKFLDLRFNEFEGTVPKELFSKDLDAIFINHNRFRFELPENFGDSPVSVIVLANNRFHGCVPSSLVEMKNLNEIIFMNNGLNSCLPSDIGRLKNVTVFDVSFNELVGPLPESVGEMVSVEQLNVAHNMLSGKIPASICQLPKLENFTYSYNFFTGEAPVCLRLPEFDDRRNCLPGRPAQRSPGQCKAFLSRPPVNCGSFSCGRSVSPRPPVVTPLPPPSLPSPPPPAPIFSTPPTLTSPPPPSPPPPVYSPPPPPPPPPPVYSPPPPPPPPPPPPVYSPPPPPPPPPPPPPVYSPPPPSPPPPPPPVYSPPPPPPPPPPPPVYSPPPPPVYSSPPPPPSPAPTPVYCTRPPPPPPHSPPPPQFSPPPPEPYYYSSPPPPHSSPPPHSPPPPHSPPPPIYPYLSPPPPPTPVSSPPPTPVYSPPPPPPCIEPPPPPPCIEYSPPPPPPVVHYSSPPPPPVYYSSPPPPPVYYSSPPPPPPVHYSSPPPPEVHYHSPPPSPVHYSSPPPPPSAPCEESPPPAPVVHHSPPPPMVHHSPPPPVIHQSPPPPSPEYEGPLPPVIGVSYASPPPPPFY
modifications: left off: double FLAG, C-terminal, kept
notes: LRX3 lacking the extensin domain
In the case of B2, the “interaction with FER^ECD” value [5] is reported as “revealed interaction of the two proteins; also recorded: show interaction with FER^ECD”.

B3: LRX2: LRR domain of LRX2 (BD-LRX2), gene At1g62440 (protein)
chain: MLLFPSTSLRLFFFLFLLFSSCFLQIRGDDDDDDISDDNIKVDPSLKFENPSLRQAYIALQSWKQAIFSDPFNFTANWNGSDVCSYNGIFCAPSPSSPKTRVVAGIDLNHADMAGYLPRELGLLTDLALFHLNSNRFCGEVPLTFKHMKLLFELDLSNNRFVGKFPNVVLSLPSLKFLDLRYNEFEGSIPSKLFDKELDAIFLNHNRFMFGIPENMGNSPVSALVLADNDLGGCIPGSIGLMGKTLNEIILSNDNLTGCLPPQIGNLKNVTVFDISFNRLSGPLPSSIGNMKSLEQLNVANNRFTGVIPSSICQLSNLENFTYSSNFFTGDAPRCVALLGDNVVVNGSMNCIDGKEDQRSSKECSSPASRSVDCSKFGCNNFFSPPPPSFKMSPTVRVLPPPPPSSKMSPTFRATPPPPSSKMSPSFRATPPPPSSKMSPSFRATPPPPSSKMSPSVKAYPPPPPPPEYEPSPPPPSSEMSPSVRAYPPPPPLSPPPPSPPPPYIYSSPPPPSPSPPPPYIYSSPPPVVNCPPTTQSPPPPKYEQTPSPREYYPSPSPPYYQYTSSPPPPTYYATQSPPPPPPPTYYAVQSPPPPPPVYYPPVTASPPPPPVYYTPVIQSPPPPPVYYSPVTQSPPPPPPVYYPPVTQSPPPSPVYYPPVTQSPPPPPVYYLPVTQSPPPPSPVYYPPVAKSPPPPSPVYYPPVTQSPPPPSTPVEYHPPASPNQSPPPEYQSPPPKGCNDSPSNDHHYQTPTPPSLPPPYYEDTPLPPIRGVSYASPPPPSIPYY
modifications: left off: Gal4 DNA-binding domain (from the vector pGBKT7), end not stated, kept
notes: LRR domain of LRX2 (BD-LRX2), gene At1g62440
In the case of B3, the “interaction with FER^ECD” value [4] is reported as “showed interaction with FER^ECD”.

ATTKYISYQSLKRNSVPCSRRGASYYNCQNGAQANPYSRGCSKIARCRS [synthetic RALF1 peptide] showed a Kd [6] of 5.5 nM, a Kd [7] of 11000 nM and a Kd [8] of 4.5 nM. The Kd [9] was 3.5 nM.
